Results: the RNAGym collection of RNA variant scans (doi:10.7554/elife.80360)

B1: Twister Ribozyme (parent)
chain: AACACUGCCAAUGCCGGUCCCAAGCCCGGAUAAAAGUGGAGGGGGCGG

Variants of: B1
Assay: self-cleavage, relative activity (ratio to wild type); higher = more cleavage; co-transcriptional

| Variant | self-cleavage |
| --- | --- |
| A2G G28U | 0.286 |
| A2G G28C | 0.241 |
| A2G C14G | 0.136 |
| A2G C14U | 0.275 |
| A1C A34C | 0.214 |
| A1G A35G | 0.326 |
| A1G A35U | 0.447 |
| A2G C3U | 0.0609 |
| A1C A4C | 0.171 |
| A1C A4G | 0.131 |
| A2G G24U | 0.0773 |
| A1U G17A | 0.0711 |
| A1C C46U | 0.18 |
| A1C C46G | 0.181 |
| A2C C15G | 0.0398 |
| A2C C15A | 0.051 |
| A1C C27A | 0.192 |
| A1G A10U | 0.428 |
| A1G A10G | 0.438 |
| A1U U6G | 0.107 |
| A1U U6C | 0.0726 |
| A1U U6A | 0.0513 |
| A2G C27U | 0.218 |
| A2G C27G | 0.138 |

| Variant | self-cleavage |
| --- | --- |
| A1G G28A | 0.406 |
| A1G G28C | 0.466 |
| A2C G39A | 0.0656 |
| A2C G39C | 0.105 |
| A1U A22U | 0.0726 |
| A1U A22G | 0.0451 |
| A1C U31A | 0.168 |
| A1C U31G | 0.144 |
| A1C G7A | 0.155 |
| A1C G7C | 0.121 |
| A1U A40C | 0.0671 |
| A1C C14G | 0.124 |
| A1U C20G | 0.112 |
| A1U C20U | 0.0599 |
| A1G C46G | 0.428 |
| A1G C46A | 0.412 |
| A2C C20U | 0.0643 |
| A2C C20A | 0.0642 |
| A2C G17C | 0.0357 |
| A2C C5A | 0.0506 |
| A2C C5G | 0.0784 |
| A2G G39A | 0.143 |
| A2C C26A | 0.0536 |
| A2C C26U | 0.0792 |

| Variant | self-cleavage |
| --- | --- |
| A1C G16A | 0.209 |
| A1C U12A | 0.223 |
| A1C U12G | 0.143 |
| A1G C15U | 0.405 |
| A1U G44A | 0.0502 |
| A1G G38C | 0.304 |
| A1G G38U | 0.211 |
| A2G C9G | 0.0579 |
| A1G G43C | 0.255 |
| A1U A10G | 0.0651 |
| A2G G38U | 0.125 |
| A1C G39U | 0.129 |
| A1U G41A | 0.0475 |
| A1U G41C | 0.0395 |
| A1U G41U | 0.0585 |
| A1U C14U | 0.08 |
| A1G C21A | 0.157 |
| A2C C8U | 0.0384 |
| A2C C8A | 0.0745 |
| A1G G17U | 0.221 |
| A1G G17C | 0.128 |
| A1C U18G | 0.136 |
| A1U A11U | 0.0684 |
| A1U U37C | 0.0822 |

| Variant | self-cleavage |
| --- | --- |
| A1G A2G | 1.19 |
| A1C G29U | 0.215 |
| A1C G29A | 0.184 |
| A1C G29C | 0.231 |
| A1U G28A | 0.0517 |
| A1C A40U | 0.11 |
| A1U G38A | 0.0686 |
| A1U G38C | 0.0576 |
| A2G A40G | 0.0967 |
| A2G A40U | 0.107 |
| A2G A40C | 0.138 |
| A2C G16A | 0.116 |
| A2C G47A | 0.0858 |
| A2C G47U | 0.0503 |
| A2C G47C | 0.0493 |
| A1G U18A | 0.509 |
| A1G U18C | 0.335 |
| A1G U18G | 0.136 |
| A1U C21A | 0.0801 |
| A1C C19G | 0.187 |
| A2C C25G | 0.0416 |
| A2C C25U | 0.0669 |
| A2G A32C | 0.414 |
| A2G A32U | 0.401 |

| Variant | self-cleavage |
| --- | --- |
| A2G A32G | 0.317 |
| A1C C15U | 0.153 |
| A1C C15A | 0.179 |
| A1G G13C | 0.223 |
| A1G G13U | 0.129 |
| A2G A30G | 0.399 |
| A1U C9U | 0.0321 |
| A1U C9A | 0.0518 |
| A1G A4G | 0.237 |
| A1C A30G | 0.206 |
| A2C C9A | 0.0489 |
| A2C C9G | 0.0449 |
| A1C A10C | 0.0756 |
| A1U G16A | 0.0911 |
| A1U G16C | 0.0739 |
| A2C U12G | 0.0824 |
| A1C G38C | 0.22 |
| A1C G38A | 0.189 |
| A2G A35C | 0.308 |
| A2C G36C | 0.0351 |
| A2C G48U | 0.0976 |
| A2C G48A | 0.0475 |
| A2G A33G | 0.442 |
| A2G A33C | 0.503 |

| Variant | self-cleavage |
| --- | --- |
| A2G A33U | 0.401 |
| A1U G24C | 0.0779 |
| A1U G24U | 0.0764 |
| A1G C3U | 0.294 |
| A1G C3G | 0.274 |
| A2C G24U | 0.0478 |
| A2C G24C | 0.0423 |
| A2C C3A | 0.101 |
| A2C C3U | 0.0628 |
| A2C G28U | 0.0994 |
| A2C G28C | 0.0792 |
| A1G A40U | 0.204 |
| A1G A40C | 0.218 |
| A1G G39C | 0.122 |
| A1G G39A | 0.206 |
| A1U G47C | 0.068 |
| A2G A34U | 0.166 |
| A1C G47U | 0.228 |
| A1C G47A | 0.168 |
| A1U U31C | 0.0703 |
| A1U G43U | 0.0499 |
| A1U G43A | 0.0467 |
| A1G A11G | 0.414 |
| A1G A11C | 0.349 |

| Variant | self-cleavage |
| --- | --- |
| A2C G29A | 0.0998 |
| A2C G29U | 0.0781 |
| A2C G29C | 0.0975 |
| A1G A34C | 0.186 |
| A1C A35U | 0.129 |
| A1C A35G | 0.186 |
| A1C A35C | 0.161 |
| A1G G42U | 0.187 |
| A1G G42C | 0.251 |
| A1G G42A | 0.215 |
| A1U C46A | 0.0731 |
| A1U C46G | 0.0557 |
| A1C C5A | 0.198 |
| A1C C5G | 0.227 |
| A1G G36U | 0.204 |
| A1G G36A | 0.252 |
| A1C G36C | 0.159 |
| A1U G45A | 0.0481 |
| A2C G45U | 0.0774 |
| A1C A11C | 0.145 |
| A1C A11G | 0.218 |
| A1C U37C | 0.174 |
| A1C U37G | 0.262 |
